In assay [1] the target is HLA-B*07:02. The assay is described as follows: IEDB peptide-MHC binding, purified MHC/competitive/radioactivity; ≥ and ≤ were set here for values at or beyond the usual limits of such assays.
Assay [2] concerns the target HLA-A*02:01. The assay is described as follows: IEDB peptide-MHC binding, purified MHC/competitive/radioactivity; filed as Kd, often an IC50 or EC50 that approximates it; ≥ and ≤ were set here for values at or beyond the usual limits of such assays. The conditions noted are these: source organism: Human immunodeficiency virus 1.
For a further assay, the target named is HLA-B*58:01. The assay is described as follows: IEDB peptide-MHC binding, purified MHC/direct/fluorescence; filed as Kd, often an IC50 or EC50 that approximates it; ≥ and ≤ were set here for values at or beyond the usual limits of such assays. The conditions noted are these: source organism: SARS-CoV1.
Another assay concerns the target HLA-A*11:01. The assay is described as above. As to conditions: source organism: SARS-CoV1.
Another assay concerns the target HLA-C*03:03. Described as above. As to conditions: source organism: SARS-CoV1.
The target of the next assay is HLA-B*40:01. The description is as above. The conditions noted are these: source organism: SARS-CoV1.
The target of assay [3] is HLA-B*15:01. Described as above. The conditions noted are these: source organism: SARS-CoV1.
The next assay deals with HLA-A*03:01. Described as above.
The target of another assay is HLA-C*14:02. The description is as above. As to conditions: source organism: SARS-CoV1.
In a further assay the target is HLA-C*08:02. The assay is described as above. As to conditions: source organism: SARS-CoV1.
The target of a further assay is HLA-A*01:01. Described as above. As to conditions: source organism: SARS-CoV1.
The target of assay [4] is HLA-B*07:02. The description is as above.
Another assay deals with HLA-C*15:02. The description is as above. As to conditions: source organism: SARS-CoV1.
In the next assay the target is HLA-B*27:05. Described as above. As to conditions: source organism: SARS-CoV1.
In another assay the target is HLA-A*31:01. The description is as above. The conditions noted are these: source organism: SARS-CoV1.
The next assay addresses HLA-C*12:03. Described as above. As to conditions: source organism: SARS-CoV1.
Another assay concerns the target HLA-B*08:01. Described as above. The conditions noted are these: source organism: SARS-CoV1.
In a further assay the target is HLA-B*46:01. The assay is described as follows: IEDB peptide-MHC binding, purified MHC/competitive/fluorescence; filed as Kd, often an IC50 or EC50 that approximates it; ≥ and ≤ were set here for values at or beyond the usual limits of such assays.
The next assay deals with HLA-A*02:11. The assay is described as follows: IEDB peptide-MHC binding, purified MHC/direct/fluorescence; filed as Kd, often an IC50 or EC50 that approximates it; ≥ and ≤ were set here for values at or beyond the usual limits of such assays. As to conditions: source organism: Choclo virus.
The next assay addresses HLA-A*02:12. The description is as above. As to conditions: source organism: Choclo virus.
Another assay concerns the target HLA-A*02:03. The assay is described as above. The conditions noted are these: source organism: Choclo virus.
The next assay addresses HLA-A*02:16. The assay is described as above. The conditions noted are these: source organism: Choclo virus.
For another assay, the target named is HLA-A*23:01. The description is as above. As to conditions: source organism: Choclo virus.
A further assay deals with HLA-A*68:02. The description is as above. The conditions noted are these: source organism: Choclo virus.
The target in a further assay is HLA-A*24:03. The description is as above. As to conditions: source organism: Choclo virus.
A further assay addresses HLA-A*02:19. The description is as above. The conditions noted are these: source organism: Choclo virus.
The target in a further assay is HLA-B*35:01. The assay is described as follows: IEDB peptide-MHC binding, purified MHC/competitive/fluorescence; filed as Kd, often an IC50 or EC50 that approximates it; ≥ and ≤ were set here for values at or beyond the usual limits of such assays. As to conditions: source organism: Choclo virus.
The next assay addresses HLA-B*57:01. The assay is described as above. The conditions noted are these: source organism: Choclo virus.
In a further assay the target is HLA-B*39:01. The description is as above. As to conditions: source organism: Choclo virus.
The target in another assay is HLA-B*15:42. Described as above.
Another assay has as its target HLA-A*68:23. The assay is described as above.
The target in the next assay is HLA-A*26:01. Described as above. The conditions noted are these: source organism: Choclo virus.
The target of assay [5] is HLA-B*15:01. Described as above. As to conditions: source organism: Choclo virus.
The next assay addresses HLA-A*69:01. The assay is described as above. The conditions noted are these: source organism: Choclo virus.
For a further assay, the target named is HLA-B*15:17. Described as above. The conditions noted are these: source organism: Choclo virus.
Assay [6] addresses HLA-A*02:01. Described as above. The conditions noted are these: source organism: Choclo virus.
The next assay addresses HLA-B*45:06. Described as above.
For a further assay, the target named is HLA-B*27:03. The description is as above. As to conditions: source organism: Choclo virus.
Another assay addresses HLA-B*51:01. The assay is described as above. The conditions noted are these: source organism: Choclo virus.
A further assay has as its target HLA-B*83:01. The description is as above.
The target in a further assay is HLA-C*07:02. Nature of the assay: IEDB peptide-MHC binding, purified MHC/direct/fluorescence; filed as Kd, often an IC50 or EC50 that approximates it; ≥ and ≤ were set here for values at or beyond the usual limits of such assays. The conditions noted are these: source organism: Homo sapiens.
The target of the next assay is HLA-C*06:02. Described as above. The conditions noted are these: source organism: Homo sapiens.
In the next assay the target is HLA-C*05:01. The assay is described as above. As to conditions: source organism: Homo sapiens.
A further assay concerns the target HLA-B*73:01. The assay is described as above. The conditions noted are these: source organism: Mus musculus.
The target in another assay is HLA-A*32:15. Nature of the assay: IEDB peptide-MHC binding, purified MHC/competitive/fluorescence; filed as Kd, often an IC50 or EC50 that approximates it; ≥ and ≤ were set here for values at or beyond the usual limits of such assays. The conditions noted are these: source organism: Homo sapiens.
Another assay concerns the target HLA-A*24:02. Nature of the assay: IEDB peptide-MHC binding, purified MHC/competitive/radioactivity; ≥ and ≤ were set here for values at or beyond the usual limits of such assays. The conditions noted are these: source organism: Homo sapiens.

pIC50, pKd: −log10 of the molar value.

Regarding FATCGIFAL, the pIC50 (commonly the IC50 on a negative log10 scale, so that one unit is a factor of ten) with HLA-B*07:02 [1] (source organism: Lymphocytic choriomeningitis virus (strain Armstrong) (clone 53b)) was 5.21.
FPVRPQVPL: in the assay with HLA-B*07:02 [1] (source organism: Human immunodeficiency virus 1), the pIC50 was 7.80. For the same sequence, the negative logarithm of the Kd (pKd) (as a rule, −log10 of the Kd, conventionally taken in molar units) with HLA-A*02:01 [2] was ≤ 4.46.
As for KSYEHQTPF, the pKd is 7.06 in the assay with HLA-B*58:01; 6.08 with HLA-A*11:01; 7.46 with HLA-C*03:03; ≤ 4.04 with HLA-B*40:01; 6.77 with HLA-B*15:01 [3]; 7.05 with HLA-A*03:01 (source organism: SARS-CoV1). For the same sequence, the pKd with HLA-C*14:02 was 7.03; with HLA-C*08:02, ≤ 4.70; in the assay with HLA-A*01:01, ≤ 4.57; with HLA-B*07:02 [4] (source organism: SARS-CoV1), 5.24; with HLA-C*15:02 it was 7.96; with HLA-B*27:05, 5.36. The pKd with HLA-A*31:01 is 6.73; in the assay with HLA-C*12:03, 7.85; with HLA-B*08:01, 4.84; with HLA-B*46:01 (source organism: SARS-CoV1), 7.33.
As for LPSSSSYSY, the pKd was ≤ 4.70 with HLA-A*02:11; ≤ 4.70 with HLA-A*02:12; ≤ 4.70 in the assay with HLA-A*02:03; ≤ 4.70 with HLA-A*03:01 (source organism: Choclo virus); 4.85 with HLA-B*07:02 [4] (source organism: Orthohantavirus andesense); ≤ 4.70 with HLA-A*02:16. In addition, the negative-log Kd (pKd) is ≤ 4.70 with HLA-A*23:01; ≤ 4.70 with HLA-A*68:02; ≤ 4.70 with HLA-A*24:03; ≤ 4.70 with HLA-A*02:19; ≥ 10.00 with HLA-B*35:01; ≤ 4.70 with HLA-B*57:01. For the same sequence, the negative-log Kd (pKd) with HLA-B*39:01 was ≤ 4.70; with HLA-B*15:42 (source organism: Choclo virus), ≤ 5.30; in the assay with HLA-A*68:23 (source organism: Choclo virus) it was 5.79; in the assay with HLA-A*26:01, ≤ 4.70; in the assay with HLA-B*15:01 [5], ≤ 4.70; with HLA-A*69:01, ≤ 4.70. Besides, the pKd with HLA-B*15:17 is ≤ 4.70; with HLA-A*02:01 [6] it was ≤ 4.70; with HLA-B*46:01 (source organism: Choclo virus), ≤ 4.70; with HLA-B*45:06 (source organism: Choclo virus), ≤ 5.30; with HLA-B*27:03, ≤ 4.70; with HLA-B*51:01, ≤ 4.70. Besides, in the assay with HLA-B*83:01 (source organism: Choclo virus), the pKd was 6.13.
As to MPMKGRFPI, the pKd with HLA-C*07:02 was ≤ 4.70; with HLA-C*06:02, ≤ 4.70; with HLA-C*05:01, ≤ 4.70; with HLA-B*73:01, 5.22; with HLA-B*15:42 (source organism: Homo sapiens) it was ≤ 5.30; in the assay with HLA-A*68:23 (source organism: Homo sapiens) it was 6.57. The values for the pKd with HLA-B*45:06 (source organism: Homo sapiens), with HLA-A*32:15 and with HLA-B*83:01 (source organism: Homo sapiens) were ≤ 5.30, 6.53 and 7.16, respectively.
In the case of NYARTEDFF, in the assay with HLA-A*24:02, the pIC50 is 7.17.
Still for that read-out and setting: under TYSVSFDSLF stands 7.85.
